Data on two molecules can be found in patent US20260083826A1, “NEW SYNTHETIC DRUGS FOR TREATING ALZHEIMER'S DISEASE” (OKINAWA INSTITUTE OF SCIENCE AND TECHNOLOGY SCHOOL …, priority 2022, published 2026).

Series [1] has as its target Taxol-stabilized microtubules. The series is described as follows: MT spin-down (co-sedimentation) assay with PHDP5 (1 mM) added as competitor to MT and dynamin 1.
Series [2] concerns the target microtubules in mouse calyceal terminals (endogenous, assembled after h-tau loading), Q9ERD7.

Chain of microtubules in mouse calyceal terminals (endogenous, assembled after h-tau loading), Q9ERD7 (Q9ERD7 whole entry, looked up): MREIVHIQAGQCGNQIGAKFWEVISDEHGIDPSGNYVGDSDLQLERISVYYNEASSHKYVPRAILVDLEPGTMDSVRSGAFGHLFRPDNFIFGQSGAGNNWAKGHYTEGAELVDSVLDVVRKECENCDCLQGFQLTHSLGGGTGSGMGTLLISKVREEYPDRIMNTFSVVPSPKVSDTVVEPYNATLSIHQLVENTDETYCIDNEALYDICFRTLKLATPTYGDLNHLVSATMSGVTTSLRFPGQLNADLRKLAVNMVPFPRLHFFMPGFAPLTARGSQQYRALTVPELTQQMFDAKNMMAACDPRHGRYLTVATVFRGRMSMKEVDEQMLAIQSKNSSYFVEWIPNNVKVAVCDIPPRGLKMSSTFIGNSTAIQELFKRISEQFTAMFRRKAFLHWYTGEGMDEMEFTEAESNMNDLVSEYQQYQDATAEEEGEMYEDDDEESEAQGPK

In series [1], “His-tagged human dynamin 1 (from UniProt Q05193 1-864)” yielded a % of dynamin 1 in precipitates (ppts) relative to total amount of 6.3%.

B1: dynamin 1 in mouse calyx of Held presynaptic terminals (endogenous) (protein)
chain: MGNRGMEDLIPLVNRLQDAFSAIGQNADLDLPQIAVVGGQSAGKSSVLENFVGRDFLPRGSGIVTRRPLVLQLVNSTTEYAEFLHCKGKKFTDFEEVRLEIEAETDRVTGTNKGISPVPINLRVYSPHVLNLTLVDLPGMTKVPVGDQPPDIEFQIRDMLMQFVTKENCLILAVSPANSDLANSDALKIAKEVDPQGQRTIGVITKLDLMDEGTDARDVLENKLLPLRRGYIGVVNRSQKDIDGKKDITAALAAERKFFLSHPSYRHLADRMGTPYLQKVLNQQLTNHIRDTLPGLRNKLQSQLLSIEKEVDEYKNFRPDDPARKTKALLQMVQQFAVDFEKRIEGSGDQIDTYELSGGARINRIFHERFPFELVKMEFDEKELRREISYAIKNIHGIRTGLFTPDLAFEATVKKQVQKLKEPSIKCVDMVVSELTSTIRKCSEKLQQYPRLREEMERIVTTHIREREGRTKEQVMLLIDIELAYMNTNHEDFIGFANAQQRSNQMNKKKTSGNQDEILVIRKGWLTINNIGIMKGGSKEYWFVLTAENLSWYKDDEEKEKKYMLSVDNLKLRDVEKGFMSSKHIFALFNTEQRNVYKDYRQLELACETQEEVDSWKASFLRAGVYPERVGDKEKASETEENGSDSFMHSMDPQLERQVETIRNLVDSYMAIVNKTVRDLMPKTIMHLMINNTKEFIFSELLANLYSCGDQNTLMEESAEQAQRRDEMLRMYHALKEALSIIGDINTTTVSTPMPPPVDDSWLQVQSVPAGRRSPTSSPTPQRRAPAVPPARPGSRGPAPGPPPAGSALGGAPPVPSRPGASPDPFGPPPQVPSRPNRAPPGVPRITISDP
B1: in series [2], the “dynamin immunofluorescence in permeabilised h-tau-loaded terminals against terminals without h-tau loading” value is recorded as “a 2.6-fold increase in dynamin signal”.
